{"source": "paper PMC8670446", "target": "His-tagged luciferase, heat-aggregated on the BLI sensor [luciferase: P08659]", "sequence (P08659 whole entry)": "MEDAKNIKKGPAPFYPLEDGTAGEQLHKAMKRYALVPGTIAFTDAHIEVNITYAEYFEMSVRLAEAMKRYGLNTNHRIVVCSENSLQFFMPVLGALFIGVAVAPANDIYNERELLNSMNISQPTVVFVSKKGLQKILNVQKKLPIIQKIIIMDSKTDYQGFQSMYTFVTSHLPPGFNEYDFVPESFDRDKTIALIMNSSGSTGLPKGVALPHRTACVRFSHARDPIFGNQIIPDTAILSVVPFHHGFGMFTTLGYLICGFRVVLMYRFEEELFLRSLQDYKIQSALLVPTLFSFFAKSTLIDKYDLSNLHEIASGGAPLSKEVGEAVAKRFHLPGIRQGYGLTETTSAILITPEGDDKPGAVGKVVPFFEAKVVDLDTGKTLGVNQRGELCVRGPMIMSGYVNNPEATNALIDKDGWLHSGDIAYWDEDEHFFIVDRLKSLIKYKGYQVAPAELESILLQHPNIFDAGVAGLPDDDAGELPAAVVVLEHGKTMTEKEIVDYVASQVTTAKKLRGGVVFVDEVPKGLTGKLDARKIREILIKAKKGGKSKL", "assay": "BLI; protein aggregate immobilised on the sensor (His-tagged luciferase on Ni-NTA); Ssa1 variant together with Sis1 WT in solution, 1 µM each unless specified differently; buffer A (25 mM Hepes-KOH pH 8.0, 75 mM KCl, 15 mM MgCl2) with 2 mM DTT and 5 mM ATP; the signal is that of both chaperones", "data": [{"substance": "Ssa1 (from UniProt P10591 1-642) (natural protein)", "values": [{"measurement": "BLI layer thickness (Sis1 and Ssa1 together)", "value": 7, "unit": "nm"}]}]}
